# B1: T7 TOPO linker (T7topG/T7botG/TOPO-5) (dsDNA)
# DNA 1: GACTCGTAATACGACTCACTATAGGGCCCTTATTCCGATAGTG
# DNA 2: AGGGCCCTATAGTGAGTCGTATTACGAGTCAAAAAAAAAAAA
# DNA 3: CAACACTATCGGAATA
# modifications: 5'-phosphate on each oligo
# Molecular target: Vaccinia DNA topoisomerase I (Vaccinia virus, UniProt P68698 P68698:1-314)
# Test: covalent topoisomerase-DNA complex isolated on SP Sepharose; cleaved linker band seen after proteinase K
# Conditions: tags: Invitrogen; nicked duplex with 3' overhang
# Experimental: The topoisomerase-charged promoter linker was purified using an Akta-FPLC and Unicom software ver. 4.00 (Amersham). 360 μl of the linking reaction was loaded onto a 1 ml HiTrap SP Sepharose HP pre-packed column (Amersham) pre-equilibrated in buffer A (50 mM Tris-HCl pH 7.0), washed at 0.5 ml/min with 11 ml buffer A (collected in 1 ml fractions), and eluted with a 5 ml, 0-100% buffer B (50 mM Tris-HCl pH 7.0, 1M NaCl) gradient followed by 3 ml of 100% buffer B. The eluate was collected in 0.2 ml fractions.
binder,measurement,value
B1,binding result,binds
